Experiment [1] deals with T1, human TROP2-his protein (human, UniProt P09758 27-274).
T1 construct: also called biotin labeled human TROP2-his protein
T1 sequence: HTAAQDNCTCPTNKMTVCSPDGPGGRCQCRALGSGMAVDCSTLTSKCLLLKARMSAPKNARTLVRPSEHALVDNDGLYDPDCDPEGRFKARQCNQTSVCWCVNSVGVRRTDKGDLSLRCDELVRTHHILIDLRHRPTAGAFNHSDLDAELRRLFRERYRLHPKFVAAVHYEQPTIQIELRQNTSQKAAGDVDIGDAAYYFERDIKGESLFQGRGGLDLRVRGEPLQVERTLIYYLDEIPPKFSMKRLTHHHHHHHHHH
The experiment in a line: competitive ELISA: antibody pre-mixed with biotin labeled human TROP2-his, added to plate coated with the benchmark (sacituzumab analog); unit taken from the x axis (ng/mL). Here is the method:
The anti-TROP2 antibodies were tested for their epitope binding in a competitive ELISA assay. Briefly, 100 μl of the benchmark at 1 μg/mL in PBS was coated on 96-well micro plates for 2 hours at 37° C. ELISA plates were washed once with wash buffer (PBS+0.05% v/v Tween-20, PBST) and then blocked with 200 μl blocking buffer (5% w/v non-fatty milk in PBST) for 2 hours at 37° C. While blocking, the anti-TROP2 antibodies of the disclosure or controls were diluted with biotin labeled human TROP2-his protein (SEQ ID NO: 16, 34 ng/mL in 2.5% w/v non-fatty milk in PBST), starting at 80 nM with a 5-fold serial dilution, and incubated at room temperature for 40 minutes. After plate washing 4 times, the antibody/TROP2-his protein mixtures were added to benchmark coated plates, 100 μl per well. After incubation at 37° C. for 40 minutes, plates were washed 4 times again using wash buffer. Then the plates were added and incubated with 100 μl Peroxidase Streptavidin (1:10000 dilution in PBST buffer, Jackson Immunoresearch, Cat #016-030-084) for 40 minutes at 37° C. Plates were washed again using wash buffer. […] The absorbance of each well was read on a microplate reader using dual wavelength mode with 450 nm for TMB and 630 nm as the reference wavelength, and the OD (450-630) values were plotted against antibody concentration. Data was analyzed using Graphpad Prism software and IC₅₀ values were reported.
A general note: In an ELISA, binding on a coated surface is turned into a signal by an enzyme label.

The target in experiment [2] is T1, human TROP2-his protein. The experiment in a line: SPR Biacore T200; antibody captured on anti-human IgG chip, 40 nM human TROP2-his as analyte. The text has this: The purified anti-TROP2 mouse monoclonal antibodies (mAbs) were characterized for binding affinity and binding kinetics by Biacore T200 system (GE healthcare, Pittsburgh, PA, USA). Briefly, goat anti-human IgG (GE healthcare, Cat #BR100839, Human Antibody Capture Kit) was covalently linked to a CM5 chip (carboxy methyl dextran coated chip from GE healthcare #BR100530) via primary amines, using a standard amine coupling kit (GE healthcare, Pittsburgh, PA, USA) provided by Biacore. Un-reacted moieties on the chip (biosensor) surface were blocked with ethanolamine. The anti-TROP2 antibodies of the disclosure and the benchmark at the concentration of 2 μg/ml were respectively flowed onto the chip at a flow rate of 10 μL/min. Then, serially diluted human TROP2-his protein (prepared in-house with SEQ ID NO: 16), or cynomolgus TROP2-his protein (prepared in-house with SEQ ID NO: 19), 2-fold dilution in HBS-EP⁺ buffer (provided by Biacore) starting at 160 nM, were flowed onto the chip at a flow rate of 30 μL/min. The antigen-antibody association kinetics was followed for 2 minutes and the dissociation kinetics was followed for 10 minutes. The association and dissociation curves were fit to a 1:1 Langmuir binding model using BIAcore evaluation software.
For the BIAcore test, cell supernatants containing humanized 01-9F-CDR-V11 antibodies were respectively flowed onto the chip at a flow rate of 10 μL/min, and 40 nM human TROP2-his protein (prepared in-house with SEQ ID NO: 16) in HBS-EP⁺ buffer (provided by Biacore) were flowed onto the chip at a flow rate of 30 μL/min.
On the technique in general: In SPR one partner is held on a chip, and binding of the other changes the refractive index at the surface.

B1: single domain antibody 01-9F (VHH)
VHH: QVQLVESGGGSVQAGGSLRLSCVVSGLPYERYCVAWFRQGPGKEREGVARILSDGTTSYSDSVKGRFTISKDNAKNTLYLQMNSLKSEDTATYYCAAEAFRPFTPSDGDCTTVLGIDYWGKGTPVTVSS
Turning to B1, the IC50 (usually the concentration needed to halve the response being measured) in the experiment with human TROP2-his protein [1] came out at 0.0274 µg/mL. Besides, in the experiment with human TROP2-his protein [2], the affinity, expressed as Kd, was 0.188 nM; the koff (as a rule, the first-order rate constant of dissociation) was determined as 0.000224 s⁻¹; the kon (commonly the rate constant with which the complex forms) stood at 1.19e+06 M⁻¹ s⁻¹.

Values taken from patent publication US20230383007A1 (BIOSION, published 2023).
